Reference: patent publication EP4789680A1, “NOVEL PACE4 INHIBITOR AND USE THEREOF IN ANTI-OSTEOARTHRITIS” (Inflamax Pharmaceuticals Limited, priority 2023, dated 2025)
*1 amine or outer side, *2 acyl side, *3 side chain or, on linkers, in order; H or OH if unused. Where no end group is shown, it is not given here. [ ]: non-standard residue; d: D form. Ala(piperidin-4-yl) = O=C([C@H](CC1CCN([*:3])CC1)N[*:1])[*:2]; Phe(4-guanidino) = N=C(N)Nc1ccc(C[C@H](N)C(=O)O)cc1; Phe(4-CF3) = N[C@@H](Cc1ccc(C(F)(F)F)cc1)C(=O)O

T1: PACE4 (UniProt P29122 150-969, limits assumed)
T1 sequence (looked up): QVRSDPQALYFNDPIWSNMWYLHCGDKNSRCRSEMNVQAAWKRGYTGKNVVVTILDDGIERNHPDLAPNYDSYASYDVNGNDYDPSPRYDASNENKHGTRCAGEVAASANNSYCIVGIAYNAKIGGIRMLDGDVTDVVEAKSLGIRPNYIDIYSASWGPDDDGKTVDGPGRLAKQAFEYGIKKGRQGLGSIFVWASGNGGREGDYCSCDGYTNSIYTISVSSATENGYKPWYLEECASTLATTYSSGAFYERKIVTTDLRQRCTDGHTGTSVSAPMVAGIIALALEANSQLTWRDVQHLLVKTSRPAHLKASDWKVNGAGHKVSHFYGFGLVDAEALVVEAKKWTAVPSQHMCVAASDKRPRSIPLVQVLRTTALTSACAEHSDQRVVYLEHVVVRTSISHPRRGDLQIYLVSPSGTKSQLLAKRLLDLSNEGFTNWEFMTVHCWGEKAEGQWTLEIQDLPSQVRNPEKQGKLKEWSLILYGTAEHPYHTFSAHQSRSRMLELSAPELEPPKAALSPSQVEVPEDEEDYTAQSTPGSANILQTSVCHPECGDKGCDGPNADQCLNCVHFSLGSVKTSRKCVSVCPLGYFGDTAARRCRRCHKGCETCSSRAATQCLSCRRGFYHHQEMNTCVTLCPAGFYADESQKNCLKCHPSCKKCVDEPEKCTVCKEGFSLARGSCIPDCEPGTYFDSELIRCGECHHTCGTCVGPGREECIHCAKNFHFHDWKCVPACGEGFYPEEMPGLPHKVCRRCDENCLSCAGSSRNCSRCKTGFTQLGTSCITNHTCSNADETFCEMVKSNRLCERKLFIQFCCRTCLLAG


The binders below were run against T1, PACE4 (assay: cell-based or functional assay).

Binder | IC50 (µM), PACE4 enzyme inhibition, fluorogenic substrate pyroGlu-Arg-Val-Lys-Arg-methyl-coumaryl-7-amide
Ac-R[Ala(piperidin-4-yl)]KR[dT]-NH2 (SMILES CC(=O)N[C@@H](CCCNC(=N)N)C(=O)N[C@@H](CC1CCNCC1)C(=O)N[C@@H](CCCCN)C(=O)N[C@@H](CCCNC(=N)N)C(=O)N[C@@H](C(N)=O)[C@H](C)O) [Ac-R-A(4-Pip)-K-R-dT-NH2] | 0.1 µM
P[dR]R[Ala(piperidin-4-yl)]KR[dT]-NH2 (N-terminus assumed; SMILES C[C@H](O)[C@@H](NC(=O)[C@H](CCCNC(=N)N)NC(=O)[C@H](CCCCN)NC(=O)[C@H](CC1CCNCC1)NC(=O)[C@H](CCCNC(=N)N)NC(=O)[C@@H](CCCNC(=N)N)NC(=O)[C@@H]1CCCN1)C(N)=O) [P-dR-R-A(4-Pip)-K-R-dT-NH2] | 0.07 µM
Ac-R[Ala(piperidin-4-yl)]KRT-NH2 (SMILES CC(=O)N[C@@H](CCCNC(=N)N)C(=O)N[C@@H](CC1CCNCC1)C(=O)N[C@@H](CCCCN)C(=O)N[C@@H](CCCNC(=N)N)C(=O)N[C@H](C(N)=O)[C@@H](C)O) [Ac-R-A(4-Pip)-K-R-T-NH2] | 0.3 µM
[dP][dR]R[Ala(piperidin-4-yl)]KR[dT]-NH2 (N-terminus assumed; SMILES C[C@H](O)[C@@H](NC(=O)[C@H](CCCNC(=N)N)NC(=O)[C@H](CCCCN)NC(=O)[C@H](CC1CCNCC1)NC(=O)[C@H](CCCNC(=N)N)NC(=O)[C@@H](CCCNC(=N)N)NC(=O)[C@H]1CCCN1)C(N)=O) [dP-dR-R-A(4-Pip)-K-R-dT-NH2] | 0.08 µM
Ac-RFKRT-NH2 [Ac-R-F-K-R-T-NH2] | 2 µM
Ac-RR[Phe(4-CF3)]KR[dT]-NH2 (SMILES CC(=O)N[C@@H](CCCNC(=N)N)C(=O)N[C@@H](CCCNC(=N)N)C(=O)N[C@@H](Cc1ccc(C(F)(F)F)cc1)C(=O)N[C@@H](CCCCN)C(=O)N[C@@H](CCCNC(=N)N)C(=O)N[C@@H](C(N)=O)[C@H](C)O) [Ac-R-R-F(4-CF3)-K-R-dT-NH2] | 0.09 µM
Ac-[dR]R[Ala(piperidin-4-yl)]KR[dT]-NH2 (SMILES CC(=O)N[C@H](CCCNC(=N)N)C(=O)N[C@@H](CCCNC(=N)N)C(=O)N[C@@H](CC1CCNCC1)C(=O)N[C@@H](CCCCN)C(=O)N[C@@H](CCCNC(=N)N)C(=O)N[C@@H](C(N)=O)[C@H](C)O) [Ac-dR-R-A(4-Pip)-K-R-dT-NH2] | 0.12 µM
Ac-[dR]R[Phe(4-CF3)]KR[dT]-NH2 (SMILES CC(=O)N[C@H](CCCNC(=N)N)C(=O)N[C@@H](CCCNC(=N)N)C(=O)N[C@@H](Cc1ccc(C(F)(F)F)cc1)C(=O)N[C@@H](CCCCN)C(=O)N[C@@H](CCCNC(=N)N)C(=O)N[C@@H](C(N)=O)[C@H](C)O) [Ac-dR-R-F(4-CF3)-K-R-dT-NH2] | 0.04 µM
P[dR]R[Phe(4-CF3)]KR[dT]-NH2 (N-terminus assumed; SMILES C[C@H](O)[C@@H](NC(=O)[C@H](CCCNC(=N)N)NC(=O)[C@H](CCCCN)NC(=O)[C@H](Cc1ccc(C(F)(F)F)cc1)NC(=O)[C@H](CCCNC(=N)N)NC(=O)[C@@H](CCCNC(=N)N)NC(=O)[C@@H]1CCCN1)C(N)=O) [P-dR-R-F(4-CF3)-K-R-dT-NH2] | 0.02 µM
Ac-RR[Phe(4-guanidino)]KR[dT]-NH2 (SMILES CC(=O)N[C@@H](CCCNC(=N)N)C(=O)N[C@@H](CCCNC(=N)N)C(=O)N[C@@H](Cc1ccc(NC(=N)N)cc1)C(=O)N[C@@H](CCCCN)C(=O)N[C@@H](CCCNC(=N)N)C(=O)N[C@@H](C(N)=O)[C@H](C)O) [Ac-R-R-F(4-Guan)-K-R-dT-NH2] | 0.018 µM
Ac-R[Phe(4-guanidino)]KRT-NH2 (SMILES CC(=O)N[C@@H](CCCNC(=N)N)C(=O)N[C@@H](Cc1ccc(NC(=N)N)cc1)C(=O)N[C@@H](CCCCN)C(=O)N[C@@H](CCCNC(=N)N)C(=O)N[C@H](C(N)=O)[C@@H](C)O) [Ac-R-F(4-Guan)-K-R-T-NH2] | 0.023 µM
P[dR]R[Phe(4-guanidino)]KR[dT]-NH2 (N-terminus assumed; SMILES C[C@H](O)[C@@H](NC(=O)[C@H](CCCNC(=N)N)NC(=O)[C@H](CCCCN)NC(=O)[C@H](Cc1ccc(NC(=N)N)cc1)NC(=O)[C@H](CCCNC(=N)N)NC(=O)[C@@H](CCCNC(=N)N)NC(=O)[C@@H]1CCCN1)C(N)=O) [P-dR-R-F(4-Guan)-K-R-dT-NH2] | 0.025 µM
[dP][dR]R[Phe(4-CF3)]KR[dT]-NH2 (N-terminus assumed; SMILES C[C@H](O)[C@@H](NC(=O)[C@H](CCCNC(=N)N)NC(=O)[C@H](CCCCN)NC(=O)[C@H](Cc1ccc(C(F)(F)F)cc1)NC(=O)[C@H](CCCNC(=N)N)NC(=O)[C@@H](CCCNC(=N)N)NC(=O)[C@H]1CCCN1)C(N)=O) [dP-dR-R-F(4-CF3)-K-R-dT-NH2] | 0.02 µM
Ac-RR[Ala(piperidin-4-yl)]KR[dT]-NH2 (SMILES CC(=O)N[C@@H](CCCNC(=N)N)C(=O)N[C@@H](CCCNC(=N)N)C(=O)N[C@@H](CC1CCNCC1)C(=O)N[C@@H](CCCCN)C(=O)N[C@@H](CCCNC(=N)N)C(=O)N[C@@H](C(N)=O)[C@H](C)O) [Ac-R-R-A(4-Pip)-K-R-dT-NH2] | 0.09 µM
Ac-[dR]R[Phe(4-guanidino)]KR[dT]-NH2 (SMILES CC(=O)N[C@H](CCCNC(=N)N)C(=O)N[C@@H](CCCNC(=N)N)C(=O)N[C@@H](Cc1ccc(NC(=N)N)cc1)C(=O)N[C@@H](CCCCN)C(=O)N[C@@H](CCCNC(=N)N)C(=O)N[C@@H](C(N)=O)[C@H](C)O) [Ac-dR-R-F(4-Guan)-K-R-dT-NH2] | 0.015 µM
Ac-R[Phe(4-guanidino)]KR[dT]-NH2 (SMILES CC(=O)N[C@@H](CCCNC(=N)N)C(=O)N[C@@H](Cc1ccc(NC(=N)N)cc1)C(=O)N[C@@H](CCCCN)C(=O)N[C@@H](CCCNC(=N)N)C(=O)N[C@@H](C(N)=O)[C@H](C)O) [Ac-R-F(4-Guan)-K-R-dT-NH2] | 0.021 µM
Ac-RFKR-NH2 [Ac-R-F-K-R-NH2] | 12.7 µM
